We go through 83 variants from the RNAGym collection of RNA variant scans (doi:10.1073/pnas.2313332121).

Sequences and labels used below:
B1: TPR t1 (parent)
chain: GACCAAUCUGCCCUCAGAGCUCGAGAACAUCUUCGGAUGCAGAGGAGGCAGGCUUCGGUGGCGCGAUAGCGCCAACGUCCUCAACCUCCAAUGCAUCCCACCACAUGAUGAUGCCUGAAGAGCCUUGGUUUUUUG

Variants of B1 are the subject of this data set. Description: polymerase ribozyme fitness, log enrichment relative to wild type (log ratio); higher = more active; in vitro selection for triplet polymerase activity. An outline of the steps: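 Fitness measures genotype enrichment against wild-type enrichment on a logarithmic scale, with inverse-variance-weighted averaging of replicates. The logarithm is base 2, and genotypes were kept only with ≥10 input reads and ≥1 read per output in Illumina sequencing. The sequenced libraries came from one triplicate in vitro selection round, including frozen incubation at −7 °C, of PCR-built, transcribed mutant libraries of each subunit of a heterodimeric triplet polymerase ribozyme.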
For the variant U87G A91U, the “polymerase ribozyme fitness (log ratio)” value is -1.46. Regarding U54A G110A, the “polymerase ribozyme fitness (log ratio)” value was -1.52. For C4U A6U A91U G113U, the “polymerase ribozyme fitness (log ratio)” value was -3.89. The figure for A5U A43G G48A C62U A103U G110U is -6.17; for U55C G61U G113A it is -1.64. Next, C40A C73U U125G: -1.92; U38G C70U C80U G120C: -1.36. Take C12U G61U C62U G113A: the “polymerase ribozyme fitness (log ratio)” value is -4.94.

Regarding G10U C88U, the “polymerase ribozyme fitness (log ratio)” value was -0.654.

Consider A6U U109C C124A, for which the “polymerase ribozyme fitness (log ratio)” value is -5.26. The figure for G10A A16U C88A U92C G120U is -1.32; for C82G C102A U112A G120C U125G it is -4.33; for A84U A121C it is 2.22.

Take C70A C86A G113A C123G: the “polymerase ribozyme fitness (log ratio)” value is -2.59. With A43G G60A, the “polymerase ribozyme fitness (log ratio)” value was -2.12. A37U G110U: the “polymerase ribozyme fitness (log ratio)” value is -1.34. The figure for C70G U78C G113A A121G is -2.79; for U54A A83U G110U it is -3.19; for G47A C53A C97A A119G C123A it is -4.34. The figure for C3G U9A C72A G107U is -6.54; for C53U G60U C101G it is -1.27. In the case of G42A C88G, the “polymerase ribozyme fitness (log ratio)” value is -2.63. Next, C13U U33C A50G A84C C124G: -5.51. Next, C3G U7A C12U C62A G117U: -6.14; C15U C53U G61U C97U: -2.21. Take A6G G47U C64U C99A G120A: the “polymerase ribozyme fitness (log ratio)” value was -5.98. Next, G48U U130C U133A: -0.9; C94A A121C G122U U129A: -2.35.

Regarding C3G A119G, the “polymerase ribozyme fitness (log ratio)” value is -0.446. Next, A29G G51A: -3.06; G51A: -2.49. In the case of U9C C40U A43G C49G U96G A119G U131A, the “polymerase ribozyme fitness (log ratio)” value was -3.12. On to G44A U112A, for which the “polymerase ribozyme fitness (log ratio)” value is 0.126. Next, A119G U131A: 0.889; U21G G45U C101A: -3.2; G48C G51U C73U C76A G77A A119G: -6.51.

Consider C86A G110A, for which the “polymerase ribozyme fitness (log ratio)” value is -1.86. Regarding A43C A68G U109A G117U, the “polymerase ribozyme fitness (log ratio)” value is -6.95.

Consider C11G U92G, for which the “polymerase ribozyme fitness (log ratio)” value was -2.49. The figure for C53U G58C U81G C88A C89U G120C is -4.46; for C11A A24C G122A C123G it is -5.76. On to A83U C99A G117C U129G, for which the “polymerase ribozyme fitness (log ratio)” value was -5.87. Regarding G47A G57C A121U G135U, the “polymerase ribozyme fitness (log ratio)” value worked out at 1.05.

Consider G10C U96G C97U G120C G135U, for which the “polymerase ribozyme fitness (log ratio)” value was -5.98. Consider G48U G135C, for which the “polymerase ribozyme fitness (log ratio)” value was -1.03. Next, G93U U96G U106A G127C: -3.43; A41G G48A C80U A95G C124A: 0.0211. As to G39U C56U, the “polymerase ribozyme fitness (log ratio)” value stood at 0.0586. The figure for C86U U112G is 0.18; for C28U G39A U54C C79A it is -4.8; for G10C C49G G61A U81C G120C it is -4.13. Next, C20G C56G: -4.45. The figure for U59G A66C C101G A121C U132C is -2.35; for C13U G39U G44U A68G it is -5.44; for C4U G63A U116G A121U G127U it is -4.48. For C34G G44A G71A A90G C101U A121U, the “polymerase ribozyme fitness (log ratio)” value was -6.41.

Take C72U C97U G120A G122A: the “polymerase ribozyme fitness (log ratio)” value was -1.22. Next, C3U A46U: -1.57. The figure for G39C G69A U112A is -3.52; for C12U A29G A50U A91G it is -3.08. Next, G51U C101U G120U: -4.49.

For C40A A43U C89U C102U U106C C123A, the “polymerase ribozyme fitness (log ratio)” value was -6.44. In the case of G44U C62A A84U A118G, the “polymerase ribozyme fitness (log ratio)” value was -4.34.

On to A5U C11A G63U G93U, for which the “polymerase ribozyme fitness (log ratio)” value is -3.79. Take C13U G57A G69A G110U: the “polymerase ribozyme fitness (log ratio)” value was -6.08.

In the case of G61A A90G, the “polymerase ribozyme fitness (log ratio)” value is -0.68.

Turning to G47U U116G C124U, the “polymerase ribozyme fitness (log ratio)” value is -2.14. Next, G58A C73U: -0.192; U7G G45C G135U: -0.606; G23U C70G A91C C98U: -7.47. The figure for C56G G110C is -3.6; for C56G U81G it is -2.07; for C49A G69A U106A it is -2.86. Next, C3G A29U G71A A119G: -2.72; U9G G48A A111G: 0.633; C8U U9C G52U U55C: -0.0264.

U78C U112C: the “polymerase ribozyme fitness (log ratio)” value was 2.04. For A26U C53U A95U G113A, the “polymerase ribozyme fitness (log ratio)” value is -6.17. Next, G36A G71A U87C C123G: 0.907; C11G U106G: -0.452.

Turning to C56U C80G, the “polymerase ribozyme fitness (log ratio)” value was -5.25. Next, C22U U81A C88G: -5.9; G19C A29U C79G U112C A119G: -4.42.
